Results on seven molecules are retold here after patent publication US20170247448A1 (INTRINSIC LIFESCIENCES, published 2017).

Substitutions are numbered along the chain they refer to.

T1: Human hepcidin peptide (hepcidin-25) (human)
T1 construct: Synthetic 25 aa peptide; also called hep-25; Hep-25
T1 peptide: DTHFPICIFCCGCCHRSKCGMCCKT

B1: BAP070-hum01 (antibody, IgG1, V domains shown)
VH: QVQLVQSGAEVKKPGASVKVSCKASGYTFTNYGMNWVRQARGQRLEWIGWINTYTGEPTYADDFKGRLTISKDTSKNQVVLTMTNMDPVDTATYYCTTYATSWYWGQG
VL: DIQMTQSPSSLSASVGDRVTITCRASESVDSYGNSFMHWYQQKPGQAPRLLIYRASNLESGVPSRFSGSGSGTDFTFTISSLQPEDIATYYCQQSNEDLTFG
notes: Expressed as soluble IgG1 in CHO cells, tested as supernatant; The entries stop inside FR4 (...WGQG / ...FG); also called humanized hit 1
B2: BAP070-hum03 (antibody, IgG1, V domains shown)
VH: QVQLVQSGAEVKKPGASVKVSCKASGYTFTNYGMNWVRQATGQGLEWMGWINTYTGEPTYADDFKGRFVFSLDTSVSTAYLQICSLKAEDTAVYYCTTYATSWYWGQG
VL: B1 VL with D1A, M4L
notes: Expressed as soluble IgG1 in CHO cells, tested as supernatant; The entries stop inside FR4
B3: BAP070-hum05 (antibody, IgG1, V domains shown)
VH: EVQLVQSGAEVKKPGESLRISCKGSGYTFTNYGMNWIRQPPGKGLEWIGWINTYTGEPTYADDFKGRVTISADKSISTAYLQWSSLKASDTAMYYCTTYATSWYWGQG
VL: B1 VL
notes: as for B2
B4: BAP070-hum04 (antibody, V domains shown)
VH: B1 VH
VL: AIQLTQSPSSLSASVGDRVTITCRASESVDSYGNSFMHWFQQRPGQSPRRLIYRASNLESGIPPRFSGSGYGTDFTLTINNIESEDAAYYFCQQSNEDLTFG
notes: as for B2
B5: BAP070-hum06 (antibody, IgG1, V domains shown)
VH: B3 VH
VL: B1 VL with D1A, M4L
notes: as for B2
B6: BAP070-hum02 (antibody, IgG1, V domains shown)
VH: B1 VH
VL: AIQLTQSPSSLSASVGDRVTITCRASESVDSYGNSFMHWYQQKPGKAPKLLIYRASNLESGIPARFSGSGSGTEFTLTISSLQSEDFAVYYCQQSNEDLTFG
notes: as for B2
B7: BAP070-01 (human-mouse chimeric MAb 583) (antibody, human IgG1, kappa, V domains shown)
VH: QIQLVQSGPELKKPGETVKISCKASGYTFTNYGMNWVKQAPGKGLKWMGWINTYTGEPTYADDFKGRFAFSLETSASTAYLQINNLKNEDTATYFCTTYATSWYWGQGTLVTVSS
VL: DIVLTQSPASLAVSLGQRATISCRASESVDSYGNSFMHWYQQKPGQPPKLLIYRASNLESGIPARFSGSGSRTDFTLTINPVEADDVATYYCQQSNEDLTFGQGTKVEIKR
notes: used as CHO cell supernatant; also called BAP070-1

The first test deals with T1, Human hepcidin peptide (hepcidin-25). The test is described as follows: titration affinity ELISA, hepcidin 100 ng/well on Nunc Immobilizer Amino plate, CHO supernatant; antibody 50 ng/ml. The protocol:
(§1) FIGS. 17A-C. Titration affinity ELISA of humanized hits. FIG. 17A: Assay layout. CHO cells were seeded in 6 well plates, transfected with BAP070-01 (recombinant chimera), BAP070-01 humanized hits or vector only using BioAtla's transfection protocol and cultured at 37° C. in DMEM with 10% serum. Supernatants were collected at 48 hours post-transfection. Concentration of IgG in the supernatant was determined using BioAtla's quantitation ELISA. […] Vector only supernatant (column 7) was used as negative control. Bound antibodies were detected with anti-human IgG conjugated with HRP (1:2500). The reactions were stopped with 1 N HCl at 1.5 minutes after TMB was added to the wells and read immediately. OD 450 nm value of the reactions was measure with Molecular Device SPECTRAMAX® Plus. FIG. 17B: OD 450 nm value of the reactions measured with Molecular Device SPECTRAMAX® Plus. FIG. 17C: SOFTMAX® graph of […] data (Brown triangle: BAP070-01 recombinant chimeric antibody). X axis: Antibody concentration in ng/ml. Y axis: OD 450 nm values
On the technique in general: ELISA stands for enzyme-linked immunosorbent assay.
B1: the “OD 450 nm” value turned out to be 3.02 OD450.
For the molecule B2, the “OD 450 nm” value was determined as 2.93 OD450.
The same measure, in the same setting: for B3 the value was 2.85 OD450.
Turning to B4, the “OD 450 nm” value came out at 2.99 OD450.
On to B5, for which the “OD 450 nm” value came to 3.06 OD450.
Consider B6, for which the “OD 450 nm” value came out at 2.98 OD450.
On the same count and under the same terms, the figure for B7 is 3 OD450.

The target is the same in the next test. Briefly: titration affinity ELISA, hepcidin 100 ng/well on Nunc Immobilizer Amino plate, CHO supernatant; antibody 1.56 ng/ml. The protocol:
as §1
As to B1, the “OD 450 nm” value was determined as 0.827 OD450.
For B2, the “OD 450 nm” value stood at 0.564 OD450.
Take B3: the “OD 450 nm” value was 0.59 OD450.
Still for that read-out and setting: the figure for B4 is 0.827 OD450; for B5 it is 0.75 OD450.
The same measure, in the same setting: for B6 the value was 0.804 OD450; for B7, 0.492 OD450.

For the next test the target is unchanged. The test is described as follows: titration affinity ELISA, hepcidin 100 ng/well on Nunc Immobilizer Amino plate, CHO supernatant; antibody 25 ng/ml. The procedure: as §1
Take B1: the “OD 450 nm” value came out at 2.83 OD450.
B2: the “OD 450 nm” value amounted to 2.62 OD450.
The same measure, in the same setting: the figure for B3 is 2.63 OD450; for B4 it is 2.81 OD450.
On to B5, for which the “OD 450 nm” value is 2.69 OD450.
For B6, the “OD 450 nm” value turned out to be 2.77 OD450.
For B7, the “OD 450 nm” value was determined as 2.57 OD450.

For the next test the target is unchanged. The test is described as follows: titration affinity ELISA, hepcidin 100 ng/well on Nunc Immobilizer Amino plate; antibody 0 ng/ml (blank). The protocol:
as §1
B1: the “OD 450 nm” value was determined as 0.05 OD450.
Take B2: the “OD 450 nm” value turned out to be 0.051 OD450.
For B3, the “OD 450 nm” value was determined as 0.037 OD450.
On the same count and under the same terms, for B4 the value was 0.045 OD450; for B5, 0.042 OD450; for B6, 0.048 OD450.
With B7, the “OD 450 nm” value turned out to be 0.05 OD450.

For the next test the target is unchanged. Briefly: titration affinity ELISA, hepcidin 100 ng/well on Nunc Immobilizer Amino plate, CHO supernatant; antibody 3.13 ng/ml. The procedure: as §1
Consider B1, for which the “OD 450 nm” value was 1.29 OD450.
B2: the “OD 450 nm” value is 0.925 OD450.
B3: the “OD 450 nm” value came out at 0.949 OD450.
In the case of B4, the “OD 450 nm” value was found to be 1.38 OD450.
For the molecule B5, the “OD 450 nm” value came to 1.15 OD450.
Same read-out and setting: for B6 the value was 1.28 OD450; for B7, 0.793 OD450.

For a further test the target is unchanged. The test is described as follows: titration affinity ELISA, hepcidin 100 ng/well on Nunc Immobilizer Amino plate, CHO supernatant; antibody 100 ng/ml. The protocol:
as §1
Take B1: the “OD 450 nm” value stood at 3.3 OD450.
On to B2, for which the “OD 450 nm” value was determined as 3.27 OD450.
Turning to B3, the “OD 450 nm” value turned out to be 3.11 OD450.
With B4, the “OD 450 nm” value was determined as 3.35 OD450.
Turning to B5, the “OD 450 nm” value turned out to be 3.25 OD450.
As for B6, the “OD 450 nm” value is 3.31 OD450.
Take B7: the “OD 450 nm” value was determined as 3.33 OD450.

For the next test the target is unchanged. Briefly: titration affinity ELISA, hepcidin 100 ng/well on Nunc Immobilizer Amino plate, CHO supernatant; antibody 12.5 ng/ml. The protocol: as §1
Consider B1, for which the “OD 450 nm” value is 2.26 OD450.
For B2, the “OD 450 nm” value came to 1.95 OD450.
In the case of B3, the “OD 450 nm” value worked out at 1.94 OD450.
In the case of B4, the “OD 450 nm” value amounted to 2.33 OD450.
Regarding B5, the “OD 450 nm” value worked out at 2.12 OD450.
On to B6, for which the “OD 450 nm” value stood at 2.32 OD450.
For B7, the “OD 450 nm” value turned out to be 1.8 OD450.

A further test shares this target. Briefly: titration affinity ELISA, hepcidin 100 ng/well on Nunc Immobilizer Amino plate, CHO supernatant; antibody 6.25 ng/ml. The procedure: as §1
As for B1, the “OD 450 nm” value turned out to be 2.05 OD450.
B2: the “OD 450 nm” value is 1.6 OD450.
B3: the “OD 450 nm” value was found to be 1.48 OD450.
Regarding B4, the “OD 450 nm” value stood at 2 OD450.
On the same count and under the same terms, the figure for B5 is 1.68 OD450.
B6: the “OD 450 nm” value amounted to 1.85 OD450.
Take B7: the “OD 450 nm” value was determined as 1.32 OD450.
